Substrate in data set [1]: CC(=O)N[C@H]1[C@@H](O[C@H]2[C@H](O)[C@@H](O)[C@H](OCCCNC(=O)OCC3c4ccccc4-c4ccccc43)O[C@@H]2C(=O)O)O[C@H](CO)[C@@H](O)[C@@H]1O
Description: purified protein. Particulars: pH 5.0; 30.0 °C.

Substrate in data set [2]: CC(=O)N[C@H]1[C@@H](Oc2ccc3c(C)cc(=O)oc3c2)O[C@H](CO)[C@@H](O)[C@@H]1O
Description: purified protein. Conditions: pH 5.0; 30.0 °C.

B1: (Bacteroides thetaiotaomicron VPI-5482) (protein)
chain: TGPPVLKEMCQRLFPRHAQSFLFELLTDSIDTDRFILESSQGKIRIKGNNRNSLAAGLNHYLKNYCHTHVSWYASETVEMPDVLPEIPQPVYIRSKCDNRFFLNYCTFGYTMPYWKWQDWERLIDWMALNGVTMPLAITGQESIWYKVWTDMGLSDEQVRSYFTGPAHLPWHRMSNVDFWQSPLPQSWLKDQEELQKRILEREREFDMTPVLPAFAGHVPAELKTIYPNAKIYQMSQWGGFDEKYRSHFIDPMDSLYSIIQRRFLEEQTKVYGTDHIYGIDPFNEVDSPDWSEDFLANVSSKIYESIHQVDSAAQWLQMTWMFFYDKKKWTQPRIRSFLKAVPDNKLILLDYYCDHTEIWRNTEKYYGNPYIWCYLGNFGGNTMIAGNLNDIDFKIKRLFKEGGDNVYGLGATLEGFDVNPLMYEFVFDQAWDYPVTTDQWITNWSMCRGGNQDANIIKAWRALHQKIYTEHATCGQSVLMNARPRLTGTKSWNTNPGIHYANNDLWQIWKELLKARNINNSDFRFDVINIGRQVLGNLFSEYRDQFTACYNRKDTTGMREWSTRMDNLLLDVDRLLSCDATLSIGKWLQDARNCGATVSEKDYYEENARCILTVWGQQDTQLNDYANRGWGGLTRSFYRERWKRFTDGVIAAVSEDKPFDEDKFHQDITQFEYNWTLQKDSFPIVSEEDPIQIADSLILKYDTYFTKAQ
Consider B1, for which, in the data set “purified protein [1]”, the Km is 2190 ± 160 µM, the kcat came to 3.57 ± 0.09 s⁻¹ and the kcat/Km amounted to 1630 M⁻¹ s⁻¹. Besides, in “purified protein [2]”, the Km result is “(4.6 ± 0.4) × 10^−3 mM”, the kcat was 3.68 ± 0.07 s⁻¹ and the kcat/Km turned out to be 800000 M⁻¹ s⁻¹.

The values above are taken from paper PMC8225759, “A GH89 human α-N-acetylglucosaminidase (hNAGLU) homologue from gut microbe Bacteroides thetaiotaomicron capable of hydrolyzing heparosan oligosaccharides” (AMB Express, 2021).
